Assay results published in publication PMC7774954, “Interactomic affinity profiling by holdup assay: Acetylation and distal residues impact the PDZome-binding specificity of PTEN phosphatase” (PLoS ONE, 2020).
One block for each substance: values may come before it.

Experiments:
[1] = target: ARHGEF12-1, PDZ domain of ARHGEF12 (human) (UniProt Q9NZN5); test: fluorescence polarisation; competitive: pre-formed complex of PDZ domain (>60-80% complex) and 50 nM fluorescent tracer peptide, increasing amount of unlabeled PTEN peptide (8 concentrations); 20 mM HEPES pH 7.5, 150 mM NaCl, 0.5 mM TCEP, 0.01% Tween 20; triplicate; competitive binding model (ProFit); apparent
ARHGEF12-1, PDZ domain of ARHGEF12 (human), sequence (Q9NZN5 whole entry, the tested form may be a part): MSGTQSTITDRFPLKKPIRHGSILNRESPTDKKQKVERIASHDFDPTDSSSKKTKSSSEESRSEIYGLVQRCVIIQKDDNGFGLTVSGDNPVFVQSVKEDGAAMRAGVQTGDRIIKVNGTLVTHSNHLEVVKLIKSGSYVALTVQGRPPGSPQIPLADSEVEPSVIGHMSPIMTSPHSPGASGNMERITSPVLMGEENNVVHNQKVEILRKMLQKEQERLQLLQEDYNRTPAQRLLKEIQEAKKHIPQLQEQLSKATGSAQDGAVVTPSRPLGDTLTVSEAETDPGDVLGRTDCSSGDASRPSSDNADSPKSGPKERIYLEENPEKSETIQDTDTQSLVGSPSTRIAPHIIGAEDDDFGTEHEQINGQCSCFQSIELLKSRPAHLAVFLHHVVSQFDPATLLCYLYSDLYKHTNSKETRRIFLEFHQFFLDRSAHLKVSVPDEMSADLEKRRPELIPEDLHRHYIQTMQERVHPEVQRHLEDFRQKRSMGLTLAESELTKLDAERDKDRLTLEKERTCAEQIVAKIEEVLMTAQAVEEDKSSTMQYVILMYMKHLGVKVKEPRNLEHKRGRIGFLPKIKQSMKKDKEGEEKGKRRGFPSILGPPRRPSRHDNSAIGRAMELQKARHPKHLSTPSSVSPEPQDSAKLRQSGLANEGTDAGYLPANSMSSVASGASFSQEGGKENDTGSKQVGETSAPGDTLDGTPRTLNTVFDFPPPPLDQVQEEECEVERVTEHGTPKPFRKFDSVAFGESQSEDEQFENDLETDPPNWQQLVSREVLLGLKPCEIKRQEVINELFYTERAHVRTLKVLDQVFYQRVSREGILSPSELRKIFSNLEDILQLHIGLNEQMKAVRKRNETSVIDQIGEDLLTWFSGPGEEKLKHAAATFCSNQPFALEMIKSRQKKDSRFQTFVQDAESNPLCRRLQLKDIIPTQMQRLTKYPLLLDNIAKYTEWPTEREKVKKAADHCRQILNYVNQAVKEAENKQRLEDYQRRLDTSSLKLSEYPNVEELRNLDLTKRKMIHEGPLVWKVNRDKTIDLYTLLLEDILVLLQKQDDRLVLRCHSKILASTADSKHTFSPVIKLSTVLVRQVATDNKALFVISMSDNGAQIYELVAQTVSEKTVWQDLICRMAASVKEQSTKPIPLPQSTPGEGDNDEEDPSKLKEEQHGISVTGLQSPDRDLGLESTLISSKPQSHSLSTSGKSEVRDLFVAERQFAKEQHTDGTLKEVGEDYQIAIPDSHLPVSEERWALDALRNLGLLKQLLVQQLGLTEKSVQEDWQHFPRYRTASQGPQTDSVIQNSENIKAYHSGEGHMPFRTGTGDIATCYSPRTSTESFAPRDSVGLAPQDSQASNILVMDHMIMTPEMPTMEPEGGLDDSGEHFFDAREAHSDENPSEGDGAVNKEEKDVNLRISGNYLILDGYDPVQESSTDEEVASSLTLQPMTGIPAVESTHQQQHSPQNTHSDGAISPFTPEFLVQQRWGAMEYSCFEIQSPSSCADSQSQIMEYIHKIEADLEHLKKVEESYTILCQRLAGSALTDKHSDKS

[2] = target: GOPC-1, PDZ domain of GOPC (human) (UniProt Q9HD26); test: as above
[3] = target: HTRA1-1, PDZ domain of HTRA1 (human) (UniProt Q92743); test: as above
HTRA1-1, PDZ domain of HTRA1 (human), sequence (Q92743 23-480): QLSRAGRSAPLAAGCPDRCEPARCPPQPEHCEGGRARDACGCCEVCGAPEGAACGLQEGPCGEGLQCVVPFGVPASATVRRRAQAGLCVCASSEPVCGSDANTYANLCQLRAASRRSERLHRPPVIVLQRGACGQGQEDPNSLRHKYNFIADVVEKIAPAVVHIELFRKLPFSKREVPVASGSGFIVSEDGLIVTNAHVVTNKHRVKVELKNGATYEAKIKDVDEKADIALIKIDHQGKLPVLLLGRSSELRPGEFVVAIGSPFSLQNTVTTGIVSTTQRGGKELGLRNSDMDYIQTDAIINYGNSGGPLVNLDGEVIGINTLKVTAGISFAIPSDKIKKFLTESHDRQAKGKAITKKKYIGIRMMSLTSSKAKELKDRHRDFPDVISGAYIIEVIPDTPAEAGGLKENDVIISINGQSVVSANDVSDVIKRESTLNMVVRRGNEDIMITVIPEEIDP

[4] = target: MAST1-1, PDZ domain of MAST1 (human) (UniProt Q9Y2H9); test: as above
[5] = target: MAST2-1, PDZ domain of MAST2 (human) (UniProt Q6P0Q8); test: as above
MAST2-1, PDZ domain of MAST2 (human), sequence (Q6P0Q8 whole entry, the tested form may be a part): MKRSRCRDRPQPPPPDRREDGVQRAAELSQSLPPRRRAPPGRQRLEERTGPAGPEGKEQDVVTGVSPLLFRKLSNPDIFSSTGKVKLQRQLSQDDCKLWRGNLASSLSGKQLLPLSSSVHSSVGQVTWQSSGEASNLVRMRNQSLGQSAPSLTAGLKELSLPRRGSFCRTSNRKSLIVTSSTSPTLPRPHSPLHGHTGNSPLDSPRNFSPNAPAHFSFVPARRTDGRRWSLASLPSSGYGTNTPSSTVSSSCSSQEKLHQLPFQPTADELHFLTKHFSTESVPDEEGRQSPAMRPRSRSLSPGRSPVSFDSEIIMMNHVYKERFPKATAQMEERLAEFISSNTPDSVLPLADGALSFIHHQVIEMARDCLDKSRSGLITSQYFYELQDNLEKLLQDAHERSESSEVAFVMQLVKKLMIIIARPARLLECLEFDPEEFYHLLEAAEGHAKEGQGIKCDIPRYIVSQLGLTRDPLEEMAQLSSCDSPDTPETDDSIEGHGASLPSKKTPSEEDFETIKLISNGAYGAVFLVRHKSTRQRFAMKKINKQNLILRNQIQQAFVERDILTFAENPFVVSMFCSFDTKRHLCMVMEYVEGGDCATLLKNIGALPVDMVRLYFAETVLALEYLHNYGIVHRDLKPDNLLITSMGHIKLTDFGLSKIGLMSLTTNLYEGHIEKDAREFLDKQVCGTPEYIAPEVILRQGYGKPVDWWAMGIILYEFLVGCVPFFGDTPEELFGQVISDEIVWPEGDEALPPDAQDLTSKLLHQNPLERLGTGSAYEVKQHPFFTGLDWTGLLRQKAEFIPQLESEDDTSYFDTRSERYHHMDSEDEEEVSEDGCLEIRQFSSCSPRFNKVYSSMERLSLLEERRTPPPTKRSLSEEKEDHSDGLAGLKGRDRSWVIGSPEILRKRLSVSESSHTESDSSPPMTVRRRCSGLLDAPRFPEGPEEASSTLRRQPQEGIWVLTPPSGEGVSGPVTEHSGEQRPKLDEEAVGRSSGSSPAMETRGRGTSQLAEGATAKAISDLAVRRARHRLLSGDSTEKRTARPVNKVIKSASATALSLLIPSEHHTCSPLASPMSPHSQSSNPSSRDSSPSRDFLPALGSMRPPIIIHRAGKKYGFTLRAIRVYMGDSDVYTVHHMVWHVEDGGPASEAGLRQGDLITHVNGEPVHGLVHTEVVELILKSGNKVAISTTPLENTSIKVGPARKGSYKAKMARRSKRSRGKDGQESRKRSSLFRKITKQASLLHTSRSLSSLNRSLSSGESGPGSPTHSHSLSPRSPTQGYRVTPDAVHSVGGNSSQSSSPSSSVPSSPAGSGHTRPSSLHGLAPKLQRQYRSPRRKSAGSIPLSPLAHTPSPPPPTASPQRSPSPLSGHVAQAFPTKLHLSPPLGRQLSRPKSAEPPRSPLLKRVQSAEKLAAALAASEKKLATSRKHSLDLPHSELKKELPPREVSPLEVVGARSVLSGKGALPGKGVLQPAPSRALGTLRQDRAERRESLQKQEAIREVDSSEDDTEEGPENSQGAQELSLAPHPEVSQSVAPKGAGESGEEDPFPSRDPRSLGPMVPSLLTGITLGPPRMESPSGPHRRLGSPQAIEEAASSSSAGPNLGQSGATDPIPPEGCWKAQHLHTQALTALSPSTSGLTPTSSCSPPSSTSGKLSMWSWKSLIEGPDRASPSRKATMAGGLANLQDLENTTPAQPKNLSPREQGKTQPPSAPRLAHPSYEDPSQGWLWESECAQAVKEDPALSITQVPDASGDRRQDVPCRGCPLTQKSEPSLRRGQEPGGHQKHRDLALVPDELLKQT

[6] = target: SNTA1-1, PDZ domain of SNTA1 (human) (UniProt Q13424); test: as above
SNTA1-1, PDZ domain of SNTA1 (human), sequence (Q13424 whole entry, the tested form may be a part): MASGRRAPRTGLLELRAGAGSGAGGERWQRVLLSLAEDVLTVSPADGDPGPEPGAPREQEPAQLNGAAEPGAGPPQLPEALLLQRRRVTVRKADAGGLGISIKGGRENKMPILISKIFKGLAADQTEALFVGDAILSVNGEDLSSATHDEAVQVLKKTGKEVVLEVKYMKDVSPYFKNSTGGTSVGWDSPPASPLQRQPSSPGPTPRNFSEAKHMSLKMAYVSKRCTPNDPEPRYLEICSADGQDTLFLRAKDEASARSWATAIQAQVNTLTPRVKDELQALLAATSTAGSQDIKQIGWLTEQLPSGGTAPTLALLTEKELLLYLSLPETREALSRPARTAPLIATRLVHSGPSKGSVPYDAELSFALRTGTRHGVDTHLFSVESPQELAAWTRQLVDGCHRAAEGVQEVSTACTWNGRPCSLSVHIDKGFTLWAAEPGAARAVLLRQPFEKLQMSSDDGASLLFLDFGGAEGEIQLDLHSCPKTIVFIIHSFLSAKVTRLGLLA

[7] = target: SNTB1-1, PDZ domain of SNTB1 (human) (UniProt Q13884); test: as above
SNTB1-1, PDZ domain of SNTB1 (human), sequence (Q13884 whole entry, the tested form may be a part): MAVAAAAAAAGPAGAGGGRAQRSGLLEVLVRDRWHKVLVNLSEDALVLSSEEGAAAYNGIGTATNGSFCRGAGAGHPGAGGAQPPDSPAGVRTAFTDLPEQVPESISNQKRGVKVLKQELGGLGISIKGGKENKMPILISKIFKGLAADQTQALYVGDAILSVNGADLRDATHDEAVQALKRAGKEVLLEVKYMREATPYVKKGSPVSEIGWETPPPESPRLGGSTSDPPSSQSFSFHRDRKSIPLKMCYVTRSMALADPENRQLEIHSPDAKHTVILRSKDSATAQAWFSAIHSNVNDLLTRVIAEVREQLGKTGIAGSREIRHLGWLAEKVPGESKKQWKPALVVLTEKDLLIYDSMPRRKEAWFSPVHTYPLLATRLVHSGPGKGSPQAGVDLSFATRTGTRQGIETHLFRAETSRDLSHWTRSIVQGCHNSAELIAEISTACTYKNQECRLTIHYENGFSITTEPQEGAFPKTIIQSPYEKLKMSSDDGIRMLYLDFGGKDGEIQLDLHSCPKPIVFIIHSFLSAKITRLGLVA

[8] = target: SNTG2-1, PDZ domain of SNTG2 (human) (UniProt Q9NY99); test: as above
[9] = target: SNX27-1, PDZ domain of SNX27 (human) (UniProt Q96L92); test: as above
PTEN_13 (human) = PTEN_13 (human) (UniProt P60484); test: holdup assay; biotinylated PBM peptide saturating streptavidin resin (biotin resin as reference); tag-PDZ at 4 uM in crude E. coli lysate, 15 min, filtration, free tag-PDZ by capillary electrophoresis; singlicate; BI cut-off 0.20; BI converted into KD with the peptide concentration back-calculated from FP
PTEN_Ac (human) = PTEN_Ac (human) (UniProt P60484); test: as above
[10] = target: fRSK1, fluorescein-labelled RSK1 PBM peptide; test: fluorescence polarisation; direct: N-terminally fluorescein-labelled PBM peptide (tracer) with increasing amounts of MBP-PDZ; 384-well plates; triplicate; direct binding model (ProFit)
PTEN_11 (human) = PTEN_11 (human) (UniProt P60484); test: holdup assay; biotinylated PBM peptide saturating streptavidin resin (biotin resin as reference); tag-PDZ at 4 uM in crude E. coli lysate, 15 min, filtration, free tag-PDZ by capillary electrophoresis; singlicate; BI cut-off 0.20; BI converted into KD with the peptide concentration back-calculated from FP
SNX27-1 (human) = test: fluorescence polarisation; competitive: 50 nM fluorescent tracer peptide pre-formed with the PDZ domain (>60-80% complex), unlabeled peptide added at 8 concentrations; 20 mM HEPES pH 7.5, 150 mM NaCl, 0.5 mM TCEP, 0.01% Tween 20; triplicate; apparent
PTEN_KR (human) = PTEN_KR (human) (UniProt P60484); test: holdup assay; biotinylated PBM peptide saturating streptavidin resin (biotin resin as reference); tag-PDZ at 4 uM in crude E. coli lysate, 15 min, filtration, free tag-PDZ by capillary electrophoresis; singlicate; BI cut-off 0.20; BI converted into KD with the peptide concentration back-calculated from FP
[11] = target: fpRSK1, fluorescein-labelled phosphorylated RSK1 PBM peptide; test: fluorescence polarisation; direct: N-terminally fluorescein-labelled PBM peptide (tracer) with increasing amounts of MBP-PDZ; 384-well plates; triplicate; direct binding model (ProFit)
MAST1-1 (human) = test: fluorescence polarisation; competitive: 50 nM fluorescent tracer peptide pre-formed with the PDZ domain (>60-80% complex), unlabeled peptide added at 8 concentrations; 20 mM HEPES pH 7.5, 150 mM NaCl, 0.5 mM TCEP, 0.01% Tween 20; triplicate; apparent
MAST2-1 (human) = test: as above
[12] = target: GRID2IP-2, second PDZ domain of GRID2IP (human) (UniProt A4D2P6); test: fluorescence polarisation; competitive: pre-formed complex of PDZ domain (>60-80% complex) and 50 nM fluorescent tracer peptide, increasing amount of unlabeled PTEN peptide (8 concentrations); 20 mM HEPES pH 7.5, 150 mM NaCl, 0.5 mM TCEP, 0.01% Tween 20; triplicate; competitive binding model (ProFit); apparent
GRID2IP-2, second PDZ domain of GRID2IP (human), sequence (A4D2P6 279-356): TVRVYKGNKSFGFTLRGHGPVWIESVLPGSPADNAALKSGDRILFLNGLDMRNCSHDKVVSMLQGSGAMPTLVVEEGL

[13] = target: f16E6, fluorescein-labelled HPV16 E6 PBM peptide (HPV16); test: fluorescence polarisation; direct: N-terminally fluorescein-labelled PBM peptide (tracer) with increasing amounts of MBP-PDZ; 384-well plates; triplicate; direct binding model (ProFit)

- Kd [1]: 114 µM
- Kd [2]: 47.4 µM
- Kd [3]: 36.2 µM
- Kd [4]: 9.11 µM
- Kd [5]: 2.39 µM
- Kd [6]: 65.1 µM
- Kd [7]: 24.4 µM
- Kd [8]: 141 µM
- Kd [9]: 8.32 µM
Substance: PTEN_KR, 11-mer PTEN PDZ-binding motif peptide with K402R

- Kd (PTEN_13 (human)): 64 µM
Substance: SNTB2-1 (domain or fragment)

- Kd (PTEN_13 (human)): 6 µM
- Kd (PTEN_Ac (human)): 4 µM
Substance: SNX27-1 (domain or fragment)

- Kd (PTEN_11 (human)): 35 µM
Substance: NHERF2-2 (from UniProt Q15599 150-230) (domain or fragment)

- Kd (SNX27-1 (human)): 8 µM
Substance: PTEN_KR (from UniProt P60484 393-403) (peptide)

- Kd (PTEN_Ac (human)): 39 µM
Substance: MAGI3-2 (from UniProt Q5TCQ9 410-492) (domain or fragment)

- Kd (PTEN_11 (human)): 39 µM
- Kd (PTEN_Ac (human)): 26 µM
- Kd (PTEN_KR (human)): 32 µM
Substance: MAST1-1 (domain or fragment)

- Kd [11]: 20.4 µM
Substance: SNTA1-1, PDZ domain of SNTA1 (from UniProt Q13424 1-505) (domain or fragment)

- Kd (MAST1-1 (human)): 8 µM
- Kd (MAST2-1 (human)): 1 µM
Substance: PTEN_13 (from UniProt P60484 391-403) (peptide)

- Kd (PTEN_11 (human)): 13 µM
- Kd (PTEN_Ac (human)): 4 µM
- Kd (PTEN_KR (human)): 7 µM
Substance: MAST2-1 (domain or fragment)

- Kd [1]: 100 µM
- Kd [2]: 82.1 µM
- Kd [12]: 59.1 µM
- Kd [3]: 25.3 µM
- Kd [4]: 7.62 µM
- Kd [5]: 1.28 µM
- Kd [6]: 123 µM
- Kd [7]: 44.5 µM
- Kd [9]: 7.95 µM
Substance: PTEN_13, 13-mer wild-type PDZ-binding motif peptide of PTEN

- Kd (PTEN_Ac (human)): 10 µM
Substance: PTPN13-4 (from UniProt Q12923 1788-1868) (domain or fragment)

- Kd [1]: 113 µM
- Kd [2]: 131 µM
- Kd [4]: 10.9 µM
- Kd [6]: 194 µM
- Kd [7]: 67 µM
- Kd [9]: 13.8 µM
Substance: PTEN_11, 11-mer wild-type PDZ-binding motif peptide of PTEN

- Kd (SNX27-1 (human)): 14 µM
Substance: PTEN_11 (from UniProt P60484 393-403) (peptide)

The remaining lines, values behind:

Substance: HTRA1-1, PDZ domain of HTRA1 (from UniProt Q92743 23-480) (domain or fragment)
- Kd [10]: 64.8 µM

Substance: ARHGEF12-1, PDZ domain of ARHGEF12 (from UniProt Q9NZN5 1-1544) (domain or fragment)
- Kd [10]: 3.96 µM

Substance: MAST2-1, PDZ domain of MAST2 (from UniProt Q6P0Q8 1-1798) (domain or fragment)
- Kd [10]: 6.87 µM

Substance: DLG1-2 (from UniProt Q12959 319-405) (domain or fragment)
- Kd (PTEN_Ac (human)): 36 µM

Substance: PTPN13-2 (from UniProt Q12923 1368-1452) (domain or fragment)
- Kd (PTEN_11 (human)): 148 µM

Substance: PARD3-3 (from UniProt Q8TEW0 590-677) (domain or fragment)
- Kd (PTEN_11 (human)): 160 µM

Substance: SNTG2-1, PDZ domain of SNTG2 (from UniProt Q9NY99 1-539) (domain or fragment)
- Kd [11]: 21.9 µM

Substance: MAST1-1, PDZ domain of MAST1 (from UniProt Q9Y2H9 1-1570) (domain or fragment)
- Kd [13]: 7.52 µM

Substance: PTEN_Ac, 11-mer PTEN PDZ-binding motif peptide acetylated at K402
- Kd [1]: 65.5 µM
- Kd [2]: 70.2 µM
- Kd [3]: 10.2 µM
- Kd [4]: 7.4 µM
- Kd [5]: 2.56 µM
- Kd [6]: 45.3 µM
- Kd [7]: 14.5 µM
- Kd [8]: 377 µM
- Kd [9]: 4.07 µM

Substance: MAST3-1 (domain or fragment)
- Kd (PTEN_11 (human)): 241 µM
- Kd (PTEN_Ac (human)): 85 µM
- Kd (PTEN_KR (human)): 82 µM

Substance: SNTB1-1, PDZ domain of SNTB1 (from UniProt Q13884 1-538) (domain or fragment)
- Kd [11]: 3.98 µM
